According to patent US20220315554A1, “COMPOUNDS COMPRISING A […] LIGAND AND USE THEREOF” (priority 2019, published 2022):

Assays:
[1] = molecular target: Caspase-9 (Homo sapiens (Human)) (UniProt P55211)
[2] = molecular target: Cathepsin L (Homo sapiens (Human)) (UniProt P07711)
[3] = molecular target: T1, DPP3 (Homo sapiens (Human)) (UniProt Q9NY33)
T1 sequence: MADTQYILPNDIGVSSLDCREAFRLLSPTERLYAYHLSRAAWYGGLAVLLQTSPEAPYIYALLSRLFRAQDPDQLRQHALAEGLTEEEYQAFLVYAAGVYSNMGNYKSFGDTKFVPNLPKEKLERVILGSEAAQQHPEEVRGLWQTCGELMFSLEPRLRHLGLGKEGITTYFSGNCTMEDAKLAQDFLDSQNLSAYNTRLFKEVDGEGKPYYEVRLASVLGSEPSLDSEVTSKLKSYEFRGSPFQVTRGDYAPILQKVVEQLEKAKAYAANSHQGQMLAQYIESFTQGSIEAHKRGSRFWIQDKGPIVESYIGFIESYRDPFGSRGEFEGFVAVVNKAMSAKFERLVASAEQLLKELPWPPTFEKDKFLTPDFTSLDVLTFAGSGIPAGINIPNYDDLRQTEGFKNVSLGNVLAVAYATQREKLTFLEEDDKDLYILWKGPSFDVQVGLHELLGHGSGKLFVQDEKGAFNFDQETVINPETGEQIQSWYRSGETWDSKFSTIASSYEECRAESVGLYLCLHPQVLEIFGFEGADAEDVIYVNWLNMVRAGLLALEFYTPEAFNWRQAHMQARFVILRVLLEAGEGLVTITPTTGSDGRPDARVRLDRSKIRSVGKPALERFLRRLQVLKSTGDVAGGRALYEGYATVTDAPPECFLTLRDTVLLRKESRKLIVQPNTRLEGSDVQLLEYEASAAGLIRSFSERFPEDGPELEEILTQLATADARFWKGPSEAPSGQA

[4] = molecular target: DPP8 (Homo sapiens (Human)) (UniProt Q6V1X1)
[5] = molecular target: T2, Deubiquitinase OTUD6B (Homo sapiens (Human)) (UniProt Q8N6M0)
T2 sequence: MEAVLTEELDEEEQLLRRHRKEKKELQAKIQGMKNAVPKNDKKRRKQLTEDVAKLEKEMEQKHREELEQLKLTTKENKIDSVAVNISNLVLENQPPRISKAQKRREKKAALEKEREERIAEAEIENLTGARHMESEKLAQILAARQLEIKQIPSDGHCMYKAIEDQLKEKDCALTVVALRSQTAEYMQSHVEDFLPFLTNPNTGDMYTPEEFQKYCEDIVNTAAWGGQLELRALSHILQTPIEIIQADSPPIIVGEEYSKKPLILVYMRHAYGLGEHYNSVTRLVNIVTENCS

[6] = molecular target: Matrix metalloprotease 2 (Homo sapiens (Human)) (UniProt P08253)
Matrix metalloprotease 2 (Homo sapiens (Human)), sequence (P08253 110-660): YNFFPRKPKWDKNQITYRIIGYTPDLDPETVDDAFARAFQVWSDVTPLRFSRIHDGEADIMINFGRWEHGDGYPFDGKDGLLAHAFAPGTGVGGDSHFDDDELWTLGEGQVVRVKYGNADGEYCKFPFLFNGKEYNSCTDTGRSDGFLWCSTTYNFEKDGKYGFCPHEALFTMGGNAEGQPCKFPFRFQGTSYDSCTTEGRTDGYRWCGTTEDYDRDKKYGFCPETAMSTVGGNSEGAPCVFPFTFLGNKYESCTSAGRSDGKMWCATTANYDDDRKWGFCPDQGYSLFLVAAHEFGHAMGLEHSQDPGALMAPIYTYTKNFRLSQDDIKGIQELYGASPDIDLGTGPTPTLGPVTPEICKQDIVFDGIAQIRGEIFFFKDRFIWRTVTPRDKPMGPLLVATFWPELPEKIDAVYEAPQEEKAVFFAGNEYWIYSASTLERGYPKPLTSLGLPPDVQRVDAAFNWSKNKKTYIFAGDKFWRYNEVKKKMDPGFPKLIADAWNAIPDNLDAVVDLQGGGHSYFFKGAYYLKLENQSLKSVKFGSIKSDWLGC

[7] = molecular target: Matrix metalloprotease1 (Homo sapiens (Human)) (UniProt P03956)
Matrix metalloprotease1 (Homo sapiens (Human)), sequence (P03956 100-469): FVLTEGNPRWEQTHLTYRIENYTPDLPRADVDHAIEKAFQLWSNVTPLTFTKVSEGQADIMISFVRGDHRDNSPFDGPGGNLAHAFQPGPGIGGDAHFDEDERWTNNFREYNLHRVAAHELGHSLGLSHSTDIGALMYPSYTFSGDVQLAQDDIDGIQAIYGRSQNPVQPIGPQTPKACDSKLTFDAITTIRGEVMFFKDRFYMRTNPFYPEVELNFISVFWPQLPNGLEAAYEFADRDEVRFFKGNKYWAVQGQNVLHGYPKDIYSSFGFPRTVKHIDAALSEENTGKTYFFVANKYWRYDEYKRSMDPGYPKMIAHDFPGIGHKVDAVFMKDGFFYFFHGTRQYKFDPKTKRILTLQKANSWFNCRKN

[8] = molecular target: T3, Renin (Homo sapiens (Human)) (UniProt P00797)
T3 sequence: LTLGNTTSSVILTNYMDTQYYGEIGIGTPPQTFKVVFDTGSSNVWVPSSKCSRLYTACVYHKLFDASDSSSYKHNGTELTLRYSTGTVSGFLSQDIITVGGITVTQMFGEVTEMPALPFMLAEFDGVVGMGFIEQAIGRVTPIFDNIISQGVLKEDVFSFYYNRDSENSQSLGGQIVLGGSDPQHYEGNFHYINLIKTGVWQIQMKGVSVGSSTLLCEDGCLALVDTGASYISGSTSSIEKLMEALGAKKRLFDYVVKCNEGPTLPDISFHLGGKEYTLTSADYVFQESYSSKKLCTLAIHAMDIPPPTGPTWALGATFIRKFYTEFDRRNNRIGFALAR

[9] = molecular target: Ubiquitin carboxy-terminal hydrolase 14 (Homo sapiens (Human)) (UniProt P54578)
[10] = molecular target: T4, Recombinant human FAP (R&D systems, #3715-SE) (human)
T4 sequence: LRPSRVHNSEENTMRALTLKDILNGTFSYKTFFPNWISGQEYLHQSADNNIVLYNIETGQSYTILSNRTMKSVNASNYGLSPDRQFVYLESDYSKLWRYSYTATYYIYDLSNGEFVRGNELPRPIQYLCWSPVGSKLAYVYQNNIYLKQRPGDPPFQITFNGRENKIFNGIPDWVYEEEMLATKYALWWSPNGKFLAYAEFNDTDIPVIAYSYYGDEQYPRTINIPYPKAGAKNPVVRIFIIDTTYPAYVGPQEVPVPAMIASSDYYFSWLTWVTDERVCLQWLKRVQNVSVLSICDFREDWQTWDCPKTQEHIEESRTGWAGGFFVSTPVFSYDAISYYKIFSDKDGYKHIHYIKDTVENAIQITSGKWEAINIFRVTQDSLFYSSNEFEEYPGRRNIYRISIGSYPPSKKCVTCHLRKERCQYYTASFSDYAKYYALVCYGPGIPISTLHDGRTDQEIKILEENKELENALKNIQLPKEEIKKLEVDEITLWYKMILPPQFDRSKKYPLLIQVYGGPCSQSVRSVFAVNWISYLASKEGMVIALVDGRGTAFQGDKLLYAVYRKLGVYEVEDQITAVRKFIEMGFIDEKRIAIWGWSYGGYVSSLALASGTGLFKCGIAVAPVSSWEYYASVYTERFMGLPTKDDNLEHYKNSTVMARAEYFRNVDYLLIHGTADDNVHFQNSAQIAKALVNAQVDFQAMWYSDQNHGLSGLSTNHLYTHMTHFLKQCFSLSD

Caspase-9 (Homo sapiens (Human)), sequence (P55211 whole entry): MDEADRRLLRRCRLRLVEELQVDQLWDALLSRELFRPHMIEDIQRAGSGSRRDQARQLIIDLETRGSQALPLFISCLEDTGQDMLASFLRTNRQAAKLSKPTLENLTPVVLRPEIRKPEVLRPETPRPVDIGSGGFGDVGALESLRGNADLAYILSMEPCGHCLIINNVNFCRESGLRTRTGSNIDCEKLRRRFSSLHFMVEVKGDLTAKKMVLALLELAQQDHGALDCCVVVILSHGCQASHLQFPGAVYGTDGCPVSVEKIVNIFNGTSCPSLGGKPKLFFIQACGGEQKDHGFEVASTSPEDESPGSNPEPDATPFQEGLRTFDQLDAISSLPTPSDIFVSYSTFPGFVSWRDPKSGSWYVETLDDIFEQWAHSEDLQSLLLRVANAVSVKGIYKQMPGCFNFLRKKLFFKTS

Row | Substance | Percentage inhibition (%) at 10 µM [1] [%] | Percentage inhibition (%) at 10 µM [2] [%] | Percentage inhibition (%) at 10 µM [3] [%] | Percentage inhibition (%) at 10 µM [4] [%] | Percentage inhibition (%) at 10 µM [5] [%] | Percentage inhibition (%) at 10 µM [6] [%] | Percentage inhibition (%) at 10 µM [7] [%] | Percentage inhibition (%) at 10 µM [8] [%] | Percentage inhibition (%) at 10 µM [9] [%] | pIC50 Category (Activity) [10] [pIC50]
1 | Hex-[Cys(tMeBn(DOTA-AET))-Pro-Pro-Thr-Gln-Phe-Cys]-OH (peptide) | -2 | -6 | -1 | 11 | 0 | -2 | -7 | -1 | 2 | –
2 | Hex-[Cys(tMeBn(DOTA-PP))-Pro-Pro-Thr-Gln-Phe-Cys]-Asp-NH2 (peptide) | 8 | 6 | – | 5 | 15 | 3 | 2 | 3 | 5 | > 8
